Test: label from the status in PepcDB records

| Sequence | protein production |
| --- | --- |
| MLSKIRPKVKQPLERIGKTLASLGITPNQLTIIGFLITLLASYEFYLQNQILAGIILAVGAFLDALDGALARATGKVSKFGGFLDSTIDRLSDASILFGIALGGLVRWDVTFLTLIGSYMVSYSRCRAELAGSGTLAIGIAERGERIIIIFIASLFNAVKIGVYLVAILSWITFIQRVYEAKKRLEMG | failed |
| MKETPRASGATNFILVGLGVIIALLGLLLAAGGVKLAGLGGSWYFLIGGLAMAIAGVLIARRKKAGAWLYAVFLVGTAIWALIDAGLVFWPLFSRLFMFGAIGMVVALVYPLLARANGASAGRGAYGVAGVMAVVLVVAVGNMFVAHPSVAPTGKGPGMTPVETGKEQKDWAHYGNTEGGSRFAALDQINRDNVNKLKVAWTYQTGDVAISDGNGAEDQLTPLQIGSKVFICTPHNNLIALDADTGKELWKNEINAQSKVWQRCRGMAYFDATAAIAQPTQPNSSPITGVSVAAGANCQRRLLTNTIDGRLIAVDADTGEFCQGFGNNGQVDLKAGLGDVPDSYYQLSSAPLMAGTTVVVGGRVADNVQTDMPGGVIRGFDVITGEMRWAFDPGNPEDRQAPQGDKTYVRSTPNSWAPMSYDPAMNTVFLPMGSSSTDIYGVERSKLDHTYGASVLALDATTGNQKWVFQTVHNDLWDFDLPMQPSLIDFTKDDGQSVPAVVIGTKAGQIYVLDRATGKPLTQVDEVPVKPSNIPNEPYSPTQPKSVGMPQIGAQTLTESDMWGATPYDQLLCRIDFKKMRYDGLYTAPGTDLSLSFPGSLGGMNWGSISTDPVHGFIFVNDMRLGLWIQMIPSQNKGGAASGGEALNTGMGAVPLKGTPYAVNKNRFLSVAGIPCQAPPFGTLTAIDMKTRQVAWQVPVGTVEDTGPLGIRMHLPIKIGLPTLGGTLSTQGGLVFIAGTQDFYLRAYDSSNGNEIWKARLPVGSQGGPMTYVSPKTGKQYVVITAGGARQSTDRGDYVISYALP | failed |
| MAGEFRLLSHLCSRGSKVGELAQDTRTSLKTSWYLLGPAFVAAIAYVDPGNVAANVSSGAQFGYLLLWVIVAANVMAALVQYLSAKLGLVTGRSLPEAIGKRMGRPARLAYWAQAEIVAMATDVAEVIGGAIALRIMFNLPLPIGGIITGVVSLLLLTIQDRRGQRLFERVITALLLVIAIGFTASFFVVTPPPNAVLGGLAPRFQGTESVLLAAAIMGATVMPHAVYLHSGLARDRHGHPDPGPQRRRLLRVTRWDVGLAMLIAGGVNAAMLLVAALNMRGRGDTASIEGAYHAVHDTLGATIAVLFAVGLLASGLASSSVGAYAGAMIMQGLLHWSVPMLVRRLITLGPALAILTLGFDPTRTLVLSQVVLSFGIPFAVLPLVKLTGSPAVMGGDTNHRATTWVGWVVAVMVSLLNVMLIYLTVTG | failed |
| ARPCIPKSFGYSSVVCVCNATYCDSFDPPTFPALGTFSRYESTRSGRRMELSMGPIQANHTGTGLLLTLQPEQKFQKVKGFGGAMTDAAALNILALSPPAQNLLLKSYFSEEGIGYNIIRVPMASCDFSIRTYTYADTPDDFQLHNFSLPEEDTKLKIPLIHRALQLAQRPVSLLASPWTSPTWLKTNGAVNGKGSLKGQPGDIYHQTWARYFVKFLDAYAEHKLQFWAVTAENEPSAGLLSGYPFQCLGFTPEHQRDFIARDLGPTLANSTHHNVRLLMLDDQRLLLPHWAKVVLTDPEAAKYVHGIAVHWYLDFLAPAKATLGETHRLFPNTMLFASEACVGSKFWEQSVRLGSWDRGMQYSHSIITNLLYHVVGWTDWNLALNPEGGPNWVRNFVDSPIIVDITKDTFYKQPMFYHLGHFSKFIPEGSQRVGLVASQKNDLDAVALMHPDGSAVVVVLNRSSKDVPLTIKDPAVGFLETISPGYSIHTYLWHRQ | not failed |
| MGHHHHHHSHMGKGTFVYRTTITSPHEEVWAFFSSPTNLQTLTKIPKVVLDSTSETTQGSEIEMKLFVLGIPFQWKAYIEAYNPPFSFTDVAIKMPFPIVYWRHTHRFTTEGERTVMIDEIQYEIKMANKLVIFFLRRMFRARESALHRYFQS | not failed |
| MEPTDVSTGTGKVLLLDTKRYGYWKVCMTQIIRGQEDGFKITKPKANWTAEEKLQSKFNARAMKAIFNGVDEDEFKLIQGCKSAKQAWDTLQKSHEGTSSVKRTRLDHIATQFEYLKMEPDEKIVKFSSKISALANEAEVMGKTYKDQKLVKKLLRCLPPKFAAHKAVMRVAGNTDKISFVDLVGMLKLEEMKADQDKVKPSKNIAFNADQGSEQFQEIKDGMALLARNFGKALKRVEIDGERSRGRFSRSENDDLRKKKEIQCYECGGFGHIKPECPITKRKEMKCLKCKGVGHTKFECPNKSKLKEKSLISFSDSESDDEGEELLNFVAFMASSDSSKFMSDTDSDCDEELNPKDKYRVLYDSWVQLSKDKLKLVKEKLTLEAKLANVSTEDKQKLSGITVDGNSQDYYQKKLDCLQKECHRERDRTKLLERELNDKYKQIRMLNKGLESLDKILAMGRTDSQQRGLGYQGYTGKIKKEEGRVINFVSGGSTSETVVRQSYIEPKKQVKSHVEIKRESVVRTRMVGVICCDHCGKRFHMREQCYKFKEKVRTLWNLAKCFIEPSRFCTVWIKKKDLYGDMEAERYNHKLERMYEEEEMHYASCCNQVNKEMQDEARKKDDSFGST | failed |
| MLKDQANQLEFPRDFLGISLADQPNKYYFIIRTQRIVLEADSSIQLIMEKLQSYKSKVALYFDGFQYQLGDFRLRVGKVVPTHSENVRGIVMEVEYLPISSMEKAQKVMEEFLEIWNEALAKRSLPGKFVNIDLNFGEFGLGDIYTPQHTAVRYALVMAHMIATVQAVRG | failed |
| LRSPRLYTHRLILRPWLVQDRARFAELNADPLVMEFFPSCLDRAQSDALLRRIDAHFAEHGFGWWALQVKGGDPFIGYVGLEVVDFDAPFVPAVAIGWRLAAEHWAEGFAHEAAEAALSYAFDTLGLDQVVAFTVPANENSLGLMERLGMHRDPTDDFEHPDLPPGHRLRHHVLYRLTREDWLRR | not failed |
| MGFHLRGAIDIPEWLDNVSIISRDGNKELVSILKSQLEGYKIDVNSDPSLAKYWLIINSSSLQQQIVSIGASTNPRQYQLILTIEFMLQTPKGQIIKTPRKVNVSRQLTVNNDRILGSNEEQALLVSEMRRDAAIQIINRLNRPLEHHHHHH | not failed |
| MPKKYDEATKSKAVRLVVDHRDEYDSEYGCIRAVATRIGVGPETLRKWVRQAEIDGGERDGVTTATNRENRELKRKVAELEQTVEMLRAATTFFVRESDPRHR | failed |
| MPISNPCFTSFTQPIDGYTLPEKFTFPFCYEPHPLCELAAEELQRHLEAQQEWHHNFGLSGDKSNAIGKMFGVLLVKAPTGEIGYLSAFSGKIADSNHLPYFVPPVFDMLEEDGFFKTELAEITEINATIKQLEANPQLSHLATSIQSETTASLQQIEIQRQVMIEGRKSRKAQRAAAEITAQDGTEKSAEELEQLKVVLGKESVKEKNTLRDIKLIWDEKINALQCQLNELEDALNELKTKRKNLSNGLQKKLFQQYKFLNTHGIEKDLNDIFKDTPNQIPPAGSGECAAPKLLQYAFAHGFTPLALAEFWWGIAPKSEIRQHKKFYASCQSKCQPILGHMLDGIEMDENPLLINPAEGKDLEIVYEDEFMVVVNKPADFLSVPGKNIHDSVYARIQQRYPDATGGLIIHRLDMATSGLLVLGLTPKAHKRLQQQFINRTVEKRYTALLDGVLEQDEGLITLPMRGDLYDRPRQLVCFEHGKPAETTYQVIERKENKTKVYLYPKTGRTHQLRVHCAHYLGLNMPITGDGLYGKKANRLHLHAGYLSLIHPITKEPMEFNVEAEF | not failed |
| MQPLVSVLICAYNVEKYFAQSLAAVVNQTWRNLDILIVDDGSTDGTPAIARRFQEQDGRIRIISNPRNLGFIASLNIGLDELAKSGGGGEYIARTDADDIASPGWIEKIVGEMEKDRSIIAMGAWLEVLSEENNKSVLAAIARNGAIWDKPTRHEDIVAVFPFGNPIHNNTMIMRRSVIDGGLRFDPAYIHAEDYKFWYEAGKLGRLAYYPEALVKYRFHQDQTSSKYNLQQRRTAWKIKEEIRAGYWKAAGIAVGADCLNYGLLKSTAYALYEKALSGQDIGCLRLFLYEYFLSLEKYSLTDLLDFLTDRVMRKLFAAPQYRKILKKMLRPWKYRSYLEHHHHHH | failed |
| MSLDNSRTRPRVGHIQFLNCLPLYWGLARTGTLLDFELTKDTPEKLSEQLVRGDLDIGPVTLVEFLKNADDLVAFPDIAVGCDGPVMSCVIVSQVPLDRLDGARVALGSTSRTSVRLAQLLLSERFGVQPDYYTCPPDLSLMMQEADAAVLIGDAALRANMIDGPRYGLDVHDLGALWKEWTGLPFVFAVWAARRDYAEREPVITRKVHEAFLASRNLSLEEVEKVAEQAARWEAFDEDTLAKYFTTLDFRFGAPQLEAVTEFARRVGPTTGFPADVKVELLKPEGHHHHHH | not failed |
| MSSVSDVAFFMEVVKAGTLSGAAQELGVSTAAVSRRLANLEVRLGIRLLNRTTRRAAVTYEGELYLAEGKKILGELEELEQRLASAHSVPKGLLRVNATFGFGRQFIAPAIADFVELHPDVDVQLSLSDRPVNLIEDGFDVCIRFGDLPDARLTSRKIACNRRLLCASPGYLERFGIPASPMDLQRHRCIVIRESDETYGAWHLYSGAAQANVKVRGTVSTNDGEVAVDWALRGLGILLRSEWNVAPYLRSGRLREVLGDWRFPPADIHAVYPMKSNLSAKVRAFVSHLDKHFEPYRPRAEGKSRW | failed |
| MEQKSKFSSATVFSGKLLIASLFILSGILLFARNMGWITAELFNIIVSWHSLLIILGIYSMIRRHFVGGIILVLVGVYFLLGGLSWLPENSQAMVWPLALIIAGVLFLFKSRHRGPWDDKQRMFRDHREWMKHGHHGHAGMNFTDNQQQCESEDGFLRSDNTFGAARHVVLDELFKGAVVRTSCGGTTIDLRHTHIAPGETYIDIDCSWGGVEIYVPSDWKVVFKCNTFFGGCDDKRWQNGNINKESVLVIRGRLSFGGLEVKD | failed |
| MKCKDDMSAVLTAEQALKLVGEMFVYHMPFNRALGMELERYEKEFAQLAFKNQPMMVGNWAQSILHGGVIASALDVAAGLVCVGSTLTRHETISEDELRQRLSRMGTIDLRVDYLRPGRGERFTATSSLLRAGNKVAVARVELHNEEQLYIASATYMVG | failed |
| MKSNDLVDQIMAQVIAKVSEHAPASSAQPSHAQPSYKQRDTAMAEKTCSLTEFVGTAIGDTVGLVIANVDSALLDAMKLEKRYRSIGILGARTGAGPHIMAADEAVKATNTEVVSIELPRDTKGGAGHGSLIIFGGDDVSDVKRAVEVALKELDRTFGDVYANEAGHIELQYSARASHALEKAFGTPLGRSCGVIVGAPASIGVLMADTAVKSANVDVVAYSSPAQGTSFSNEVILVISGDSGAVRQAVISAREIGKTVLATLGAEPKNDRPSYI | failed |
| NLDPQRVEQEMILLAQRIDVAEELDRLQMHVKETTNILKKGGAVGRKLDFMMQELNRESNTLASKSINADITASAVELKVLIEQMREQIQNLE | failed |
| MGARTPPCGREIVRVLPSERLISGNGEGAPLPDSHSELPPVIRRTEFVAYALAGLLLIAVIGVLYFAKAFFLPVVMAVVAGTMLSPAASFLERRGVPRALGAVLIVTAVTTVVAFVVALIAVPAMEWSSRLPELGAQLKEKLHVFDRPLALWKELQTMVGGSEGLPSLPLPKAEWVQPTLEFLSPTFAEFLLFFATLILFIASWRDLRRALIMNFGDRDARLRTLRILNEIEVHLGNYLLTVTVINIGVGVATGIICAITGMPNPAGLGALAAALNFIPIIGPIAMFIVLIVVGLVAFPTLGGGLMAGLAFGGITFLEGHFVTPTIIGRRLSLNALAVFIALAFWTWLWGPMGAFLSSPLLIVGLILKEHLLPENSPQLPQA | failed |
| MSLEAVTILLADDEAILLLDFESTLTDAGFLVTAVSSGAKAIEMLKSGAAIDGVVTDIRFCQPPDGWQVARVAREIDPNMPIVYISGHAALEWASNGVPDSIILEKPFTSAQLITAVSQLLNAREGHHHHHH | not failed |
